Results from patent US20060067886A1, “Gastrin receptor-avid peptide conjugates” (priority 1997, published 2006).

How the values were obtained:
[1] = in vivo; conditions: SCID, mouse, in vivo, iv, 4 uCi, total radioactivity, Avg % ID, Heart, 24 hrs
Experimental: (§1) In vivo pharmacokinetic studies in human tumor bearing SCID mice. […] The xenograft models were produced by bilateral flank inoculation of 5×10^6 cells (PC-3 or MDA-MB-231 cells) per site. Four to six weeks post inoculation, palpable tumors were observed. At this point, the mice were injected with 4 μCi of the complex in […] of isotonic saline via the tail vein. The mice were euthanized and tissues and organs were excised from the animals at selected times post-injection (p.i.), including 15 minutes, 30 minutes, 1 hour, 4 hours, 24 hours, 48 hours, and 72 hours p.i. Subsequently, the tissues and organs were weighed and counted in a NaI well counter and the percent injected dose (% ID) and % ID/g of each organ or tissue calculated.
(§2) The mice were injected with 4 μCi of the complex in 100 μL of isotonic saline via the tail vein. The mice were euthanized by cervical dislocation. Tissues and organs were excised from the animals following at 1 hour, 4 hour, and 24 hours post-injection (p.i.). Subsequently, the tissues and organs were weighed and counted in a NaI well counter and the percent injected dose (% ID) and % ID/g of each organ or tissue calculated.

[2] = test system: PC-3 human tumor xenografts; experiment: in vivo
Experimental: as §1, §2

CSCC[C@H](NC(=O)[C@H](CC(C)C)NC(=O)[C@H](Cc1cnc[nH]1)NC(=O)CNC(=O)[C@@H](NC(=O)[C@H](C)NC(=O)[C@H](Cc1c[nH]c2ccccc12)NC(=O)[C@H](CCC(N)=O)NC(=O)CCCCCCCNC(=O)CN1CCN(CC(=O)O)CCN(CC(=O)O)CCN(CC(=O)O)CC1)C(C)C)C(N)=O [177Lu-DOTA-8-Aoc-BBN[7-14]NH2, metal not drawn]
tissue uptake dose at 24 h [1]: 0.01 %ID

CSCC[C@H](NC(=O)[C@H](CC(C)C)NC(=O)[C@H](Cc1cnc[nH]1)NC(=O)CNC(=O)[C@@H](NC(=O)[C@H](C)NC(=O)[C@H](Cc1c[nH]c2ccccc12)NC(=O)[C@H](CCC(N)=O)NC(=O)CCCCCCCNC(=O)CN1CCN(CC(=O)O)CCN(CC(=O)O)CCN(CC(=O)O)CC1)C(C)C)C(N)=O [90Y-DOTA-8-Aoc-BBN[7-14]NH2] [metal not drawn]
Avg % ID, Blood ([2]; 1 hr): 0.56 ± 0.20 % ID
Avg % ID, Carcass ([2]; 1 hr): 0.62 ± 0.44 % ID
Avg % ID, Kidney ([2]; 1 hr): 1.22 ± 0.46 % ID
Avg % ID, L. Intestine ([2]; 1 hr): 2.44 ± 0.66 % ID
Avg % ID, Lung ([2]; 1 hr): 0.06 ± 0.03 % ID
Avg % ID, Muscle ([2]; 1 hr): 0.02 ± 0.02 % ID
Avg % ID, Pancreas ([2]; 1 hr): 5.70 ± 1.60 % ID
Avg % ID, S. Intestine ([2]; 1 hr): 4.65 ± 0.98 % ID
Avg % ID, Spleen ([2]; 1 hr): 0.07 ± 0.04 % ID
Avg % ID, Urine ([2]; 1 hr): 57.73 ± 14.52 % ID
Avg % ID/gm, Blood ([2]; 1 hr): 0.34 ± 0.12 % ID/gm
Avg % ID/gm, Heart ([2]; 1 hr): 0.10 ± 0.11 % ID/gm
Avg % ID/gm, Lung ([2]; 1 hr): 0.22 ± 0.12 % ID/gm
Avg % ID/gm, Muscle ([2]; 1 hr): 0.15 ± 0.19 % ID/gm
Avg % ID/gm, Pancreas ([2]; 1 hr): 24.73 ± 4.97 % ID/gm
Avg % ID/gm, Spleen ([2]; 1 hr): 1.09 ± 0.67 % ID/gm
Avg % ID/gm, Stomach ([2]; 1 hr): 1.34 ± 0.64 % ID/gm
Avg % ID/gm, Tumor ([2]; 1 hr): 2.95±0.99 % ID/gm
Avg % ID, Blood ([2]; 4 hrs): 0.09 ± 0.13 % ID
Avg % ID, Carcass ([2]; 4 hrs): 0.14 ± 0.11 % ID
Avg % ID, Kidney ([2]; 4 hrs): 0.54 ± 0.25 % ID
Avg % ID, L. Intestine ([2]; 4 hrs): 3.33 ± 0.71 % ID
Avg % ID, Liver ([2]; 4 hrs): 0.19 ± 0.13 % ID
Avg % ID, Pancreas ([2]; 4 hrs): 3.42 ± 0.82 % ID
Avg % ID, S. Intestine ([2]; 4 hrs): 2.06 ± 1.27 % ID
Avg % ID, Spleen ([2]; 4 hrs): 0.02 ± 0.03 % ID
Avg % ID, Stomach ([2]; 4 hrs): 0.18 ± 0.06 % ID
Avg % ID, Tumor ([2]; 4 hrs): 0.34 ± 0.22 % ID
Avg % ID, Urine ([2]; 4 hrs): 67.02 ± 16.74 % ID
Avg % ID/gm, Blood ([2]; 4 hrs): 0.05 ± 0.07 % ID/gm
Avg % ID/gm, Heart ([2]; 4 hrs): 0.10 ± 0.14 % ID/gm
Avg % ID/gm, Kidney ([2]; 4 hrs): 1.68 ± 0.76 % ID/gm
Avg % ID/gm, L. Intestine ([2]; 4 hrs): 5.17 ± 1.85 % ID/gm
Avg % ID/gm, Liver ([2]; 4 hrs): 0.18 ± 0.12 % ID/gm
Avg % ID/gm, Lung ([2]; 4 hrs): 0.07 ± 0.07 % ID/gm
Avg % ID/gm, Muscle ([2]; 4 hrs): 0.07 ± 0.13 % ID/gm
Avg % ID/gm, Pancreas ([2]; 4 hrs): 14.02 ± 4.89 % ID/gm
Avg % ID/gm, S. Intestine ([2]; 4 hrs): 1.66 ± 0.91 % ID/gm
Avg % ID/gm, Stomach ([2]; 4 hrs): 0.55 ± 0.16 % ID/gm
Avg % ID/gm, Tumor ([2]; 4 hrs): 1.98±0.66 % ID/gm
Avg % ID, Blood ([2]; 24 hrs): 0.12 ± 0.14 % ID
Avg % ID, Feces ([2]; 24 hrs): 10.71 ± 8.29 % ID
Avg % ID, Heart ([2]; 24 hrs): 0.00 ± 0.00 % ID
Avg % ID, Kidney ([2]; 24 hrs): 0.17 ± 0.09 % ID
Avg % ID, L. Intestine ([2]; 24 hrs): 1.11 ± 0.75 % ID
Avg % ID, Liver ([2]; 24 hrs): 0.10 ± 0.03 % ID
Avg % ID, Lung ([2]; 24 hrs): 0.00 ± 0.00 % ID
Avg % ID, Muscle ([2]; 24 hrs): 0.00 ± 0.01 % ID
Avg % ID, S. Intestine ([2]; 24 hrs): 0.51 ± 0.20 % ID
Avg % ID, Tumor ([2]; 24 hrs): 0.16 ± 0.09 % ID
Avg % ID, Urine ([2]; 24 hrs): 67.62 ± 17.26 % ID
Avg % ID/gm, Blood ([2]; 24 hrs): 0.07 ± 0.08 % ID/gm
Avg % ID/gm, Heart ([2]; 24 hrs): 0.00 ± 0.00 % ID/gm
Avg % ID/gm, Kidney ([2]; 24 hrs): 0.51 ± 0.25 % ID/gm
Avg % ID/gm, L. Intestine ([2]; 24 hrs): 1.27 ± 0.92 % ID/gm
Avg % ID/gm, Liver ([2]; 24 hrs): 0.08 ± 0.03 % ID/gm
Avg % ID/gm, Lung ([2]; 24 hrs): 0.01 ± 0.02 % ID/gm
Avg % ID/gm, Muscle ([2]; 24 hrs): 0.02 ± 0.03 % ID/gm
Avg % ID/gm, Pancreas ([2]; 24 hrs): 1.80 ± 0.57 % ID/gm
Avg % ID/gm, Spleen ([2]; 24 hrs): 0.11 ± 0.13 % ID/gm
Avg % ID/gm, Stomach ([2]; 24 hrs): 0.09 ± 0.07 % ID/gm
Avg % ID/gm, Tumor ([2]; 24 hrs): 1.08±0.37 % ID/gm
Avg % ID, Blood ([2]; 48 hrs): 0.10 ± 0.14 % ID
Avg % ID, Carcass ([2]; 48 hrs): 0.11 ± 0.17 % ID
Avg % ID, Heart ([2]; 48 hrs): 0.02 ± 0.02 % ID
Avg % ID, Kidney ([2]; 48 hrs): 0.10 ± 0.04 % ID
Avg % ID, Pancreas ([2]; 48 hrs): 0.15 ± 0.04 % ID
Avg % ID, S. Intestine ([2]; 48 hrs): 0.16 ± 0.06 % ID
Avg % ID, Tumor ([2]; 48 hrs): 0.11 ± 0.07 % ID
Avg % ID, Urine ([2]; 48 hrs): 76.74 ± 21.06 % ID
Avg % ID/gm, Blood ([2]; 48 hrs): 0.06 ± 0.08 % ID/gm
Avg % ID/gm, Heart ([2]; 48 hrs): 0.14 ± 0.19 % ID/gm
Avg % ID/gm, Kidney ([2]; 48 hrs): 0.29 ± 0.12 % ID/gm
Avg % ID/gm, L. Intestine ([2]; 48 hrs): 0.77 ± 0.15 % ID/gm
Avg % ID/gm, Muscle ([2]; 48 hrs): 0.07 ± 0.13 % ID/gm
Avg % ID/gm, Pancreas ([2]; 48 hrs): 0.59 ± 0.14 % ID/gm
Avg % ID/gm, S. Intestine ([2]; 48 hrs): 0.13 ± 0.04 % ID/gm
Avg % ID/gm, Spleen ([2]; 48 hrs): 0.09 ± 0.24 % ID/gm
Avg % ID/gm, Tumor ([2]; 48 hrs): 0.58 ± 0.30 % ID/gm
Avg % ID, Blood ([2]; 72 hrs): 0.11 ± 0.15 % ID
Avg % ID, Carcass ([2]; 72 hrs): 0.10 ± 0.11 % ID
Avg % ID, Kidney ([2]; 72 hrs): 0.13 ± 0.07 % ID
Avg % ID, Liver ([2]; 72 hrs): 0.08 ± 0.11 % ID
Avg % ID, Lung ([2]; 72 hrs): 0.00 ± 0.01 % ID
Avg % ID, Pancreas ([2]; 72 hrs): 0.08 ± 0.05 % ID
Avg % ID, S. Intestine ([2]; 72 hrs): 0.11 ± 0.07 % ID
Avg % ID, Spleen ([2]; 72 hrs): 0.02 ± 0.01 % ID
Avg % ID, Tumor ([2]; 72 hrs): 0.06 ± 0.06 % ID
Avg % ID, Urine ([2]; 72 hrs): 82.97 ± 25.39 % ID
Avg % ID/gm, Blood ([2]; 72 hrs): 0.06 ± 0.09 % ID/gm
Avg % ID/gm, Kidney ([2]; 72 hrs): 0.43 ± 0.29 % ID/gm
Avg % ID/gm, L. Intestine ([2]; 72 hrs): 0.47 ± 0.24 % ID/gm
Avg % ID/gm, Liver ([2]; 72 hrs): 0.08 ± 0.11 % ID/gm
Avg % ID/gm, Lung ([2]; 72 hrs): 0.02 ± 0.03 % ID/gm
Avg % ID/gm, Muscle ([2]; 72 hrs): 0.08 ± 0.19 % ID/gm
Avg % ID/gm, Pancreas ([2]; 72 hrs): 0.27 ± 0.17 % ID/gm
Avg % ID/gm, S. Intestine ([2]; 72 hrs): 0.08 ± 0.05 % ID/gm
Avg % ID/gm, Spleen ([2]; 72 hrs): 0.28 ± 0.26 % ID/gm
Avg % ID/gm, Stomach ([2]; 72 hrs): 0.07 ± 0.03 % ID/gm
Avg % ID/gm, Tumor ([2]; 72 hrs): 0.46 ± 0.48 % ID/gm
